Positions count from the first letter of the chain named. “Also recorded” adds a separate entry of the source.
Assays:
canine IL-31 = assay: Affinity of anti-IL-31 antibodies by surface plasmon resonance (Biacore), canine IL-31 surface; format: binding; conditions: IL-31 conjugated to the surface (FIG. 2)
Method: (§1) The affinity with which candidate mAbs bind canine and feline IL-31 was determined using surface plasmon resonance (SPR) on a Biacore system (Biocore Life Sciences (GE Healthcare), Uppsala, Sweden). To avoid affinity differences associated with differential surface preparation that can occur when immobilizing antibodies to surfaces; a strategy was employed where IL-31 was directly conjugated to the surface. Immobilization was obtained by amine coupling 5 μg/mL IL-31 using N-hydroxysuccinimide (NHS)/1-Ethyl-3-(3-dimethylaminopropyl) carbodiimide (EDC) chemistry. Chips were quenched with ethanolamine and the affinity with which all candidate mAbs bound to the immobilized IL-31 was evaluated. All curves were fit to a 1:1 model. Affinity constants (KD) less than 1×10^−11M (1E-11 M) are below the lower limit of quantitation of detection for the instrument. Results for affinity measurements are described herein.

feline IL-31 = assay: Affinity of anti-IL-31 antibodies by surface plasmon resonance (Biacore), feline IL-31 surface; format: binding; conditions: IL-31 conjugated to the surface (FIG. 2)
Method: as §1

Chain of feline IL-31 (as listed by the source): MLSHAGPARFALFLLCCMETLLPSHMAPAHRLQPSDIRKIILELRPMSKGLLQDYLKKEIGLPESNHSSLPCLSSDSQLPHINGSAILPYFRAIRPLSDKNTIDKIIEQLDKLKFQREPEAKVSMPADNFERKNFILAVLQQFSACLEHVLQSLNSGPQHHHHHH
Chain of canine IL-31 (as listed by the source): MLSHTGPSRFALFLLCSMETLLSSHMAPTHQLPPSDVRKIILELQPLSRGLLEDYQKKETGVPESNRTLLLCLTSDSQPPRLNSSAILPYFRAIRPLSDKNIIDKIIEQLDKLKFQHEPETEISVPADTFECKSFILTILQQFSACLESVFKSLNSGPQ

B1: Feline 15H05 1.1: felinized 15H05, FEL_15H05_VH1 with FEL_15H05_VL1 (antibody, V domains shown)
VH: QVLLVQSGAEVRTPGASVKIFCKASGYSFTSYTIHWLRQAPAQGLEWMGNINPTSGYTENNQRFKDRLTLTADTSTNTAYMELSSLRSADTAMYYCARWGFKYDGEWSFDVWGAGTTVTVSS
VL: EIQMTQSPSSLSASPGDRVTITCRASQGISIWLSWYQQKPGKVPKLLIYKASNLHIGVPSRFSGSGSGTDFTLTISSLEPEDAATYYCLQSQTYPLTFGGGTKLEIK
affinity (KD) to canine IL-31 (canine IL-31): neutral to positive impact on affinity

B2: Feline 15H05_VH3 mouse VL: heterochimeric antibody, FEL_15H05_VH3 with MU_15H05_VL (antibody, V domains shown)
VH: B1 VH with T13K, A42E
VL: DIQMNQSPSSLSASLGDTITVTCRASQGISIWLSWYQQKPGNIPKVLINKASNLHIGVPPRFSGSGSGTHFTLTITSLQPEDIATYYCLQSQTYPLTFGGGTKLEIN
affinity (KD) to canine IL-31 (canine IL-31): improved affinity
affinity (KD) to feline IL-31 (feline IL-31): restored the affinity to feline IL-31 to equivalent or better than the mouse and chimeric forms

B3: Feline 15H05_VH1 mouse VL: heterochimeric antibody, FEL_15H05_VH1 with MU_15H05_VL (antibody, V domains shown)
VH: B1 VH
VL: B2 VL
affinity (KD) to canine IL-31 (canine IL-31): improved affinity
affinity (KD) to feline IL-31 (feline IL-31): restored the affinity to feline IL-31 to equivalent or better than the mouse and chimeric forms

B4: Feline 15H05 1.1 FW1_3: FEL_15H05_VH1 with FEL_15H05_VL1_FW1_FW3 (antibody, V domains shown)
VH: B1 VH
VL: B2 VL with N42K, I43V, V46L, N49Y, N107K
affinity (KD) to canine IL-31 (canine IL-31): good affinity
affinity (KD) to feline IL-31 (feline IL-31): good affinity

B5: Feline 15H05 1.1 FW1: FEL_15H05_VH1 with FEL_15H05_VL1_FW1 (antibody, V domains shown)
VH: B1 VH
VL: B1 VL with E1D, T5N, P15L, R18T, V19I, I21V
affinity (KD) to canine IL-31 (canine IL-31): detrimental to the affinity
affinity (KD) to feline IL-31 (feline IL-31): detrimental to the affinity

B6: Feline 15H05 1.1 FW2: FEL_15H05_VH1 with FEL_15H05_VL1_FW2 (antibody, V domains shown)
VH: B1 VH
VL: B1 VL with K42N, V43I, L46V, Y49N
affinity (KD) to canine IL-31 (canine IL-31): excellent affinity; also recorded: increased affinity
affinity (KD) to feline IL-31 (feline IL-31): excellent affinity; also recorded: increased affinity

B7: Feline 15H05 2.2: felinized 15H05, FEL_15H05_VH2 with FEL_15H05_VL2 (antibody, V domains shown)
VH: B1 VH with S28G, L37V, A40S
VL: EITMTQSPGSLAGSPGQQVTMNCRASQGISIWLSWYQQKPGQHPKLLIYKASNLHIGVPDRFSGSGSGTDFTLTISNLQAEDVASYYCLQSQTYPLTFGGGTKLEIK
affinity (KD) to canine IL-31 (canine IL-31): neutral to positive impact on affinity

B8: Feline 15H05 3.2: felinized 15H05, FEL_15H05_VH3 with FEL_15H05_VL2 (antibody, V domains shown)
VH: B1 VH with T13K, A42E
VL: B7 VL
affinity (KD) to canine IL-31 (canine IL-31): neutral to positive impact on affinity

B9: Feline 15H05 1.1 FW3: FEL_15H05_VH1 with FEL_15H05_VL1_FW3 (antibody, V domains shown)
VH: B1 VH
VL: B1 VL with S60P, D70H, S76T, E79Q, A83I
affinity (KD) to canine IL-31 (canine IL-31): excellent affinity
affinity (KD) to feline IL-31 (feline IL-31): excellent affinity

B10: Feline 15H05 1.1_FW1_2: FEL_15H05_VH1 with FEL_15H05_VL1_FW1_FW2 (antibody, V domains shown)
VH: B1 VH
VL: B2 VL with P60S, H70D, T76S, Q79E, I83A, N107K
affinity (KD) to canine IL-31 (canine IL-31): good affinity
affinity (KD) to feline IL-31 (feline IL-31): good affinity

Source: US11433139B2, “Peptide vaccines against interleukin-31” (Zoetis Services LLC, priority 2018, dated 2022)
